{"source": "patent US10226509B2", "about": "“Lymphangiogenesis inhibitors for cancer and for graft survival” (TUFTS UNIVERSITY, priority 2014, dated 2019)", "molecular_target": "T1, PDPN (Homo sapiens, UniProt Q86YL7)", "T1 construct": "Within the whole cell lysate, an anti-PDPN-reactive 43-kDa component was detected; host or cells: primary lymphatic endothelial cells (LECs)", "T1 sequence (Q86YL7 23-162)": "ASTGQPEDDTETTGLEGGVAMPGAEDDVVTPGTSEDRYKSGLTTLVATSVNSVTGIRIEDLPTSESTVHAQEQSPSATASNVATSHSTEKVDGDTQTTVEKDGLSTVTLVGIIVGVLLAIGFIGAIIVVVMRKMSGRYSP", "experiment": "Affinity precipitation assay, PDPN", "format": "binding", "conditions": "galectin-conjugated agarose beads, LEC lysates", "method": "Five mg of plant lectins (Vector Labs) and galectins were conjugated to 330 mg of Pierce® NHS-activated agarose dry resin in accordance with the manufacturer's instructions (Thermo Scientific). Primary LECs (Lonza) were lysed in Triton lysis buffer (20 mM Tris-HCl, pH 7.4; 150 mM NaCl; 0.5% Triton X-100 with protease inhibitor cocktail). LEC lysates (250 μg in 500 μL lysis buffer supplemented with 10 mM MgCl2) were incubated with 40 μL (50% slurry) of agarose-conjugated lectins (4° C., overnight). Beads were pelleted by centrifugation at 3000 rpm for 1 min. Non-specific binding proteins were removed by washing the beads with Triton lysis buffer once and PBS twice. Supernatants were discarded; bound proteins were eluted by boiling the beads with 20 μL of 2× Laemmli sample buffer for 7 min, and examined by western blotting.\nTo determine whether PDPN binds to Gal-8 in a carbohydrate-dependent manner, LEC lysates were incubated with Gal-8-conjugated to agarose beads in the presence or absence of 0.1 M of lactose (an inhibiting sugar) or sucrose (a non-inhibiting sugar). Bound proteins were examined with total cell lysates (input) by western blot using an anti-PDPN antibody. To determine specificity of PDPN binding to Gal-8, LEC lysates were also incubated with agarose beads conjugated to Gal-1, Gal-3 and Gal-7. Within the whole cell lysate, an anti-PDPN-reactive 43-kDa component was detected (FIG. 7A).", "data": [{"substance": "Gal-8: recombinant galectin-8, tandem-repeat type galectin with two different CRDs", "values": [{"measurement": "binding of PDPN (in words)", "value": "binds"}]}]}
